Reference: the nanobody polyreactivity screen of Harvey et al. (2022)

experiment: yeast display, Sf9 membrane polyspecificity reagent, FACS + sequencing; frameworks hold sequencing errors
Method in brief: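 Galactose-induced (36–48 hours) yeast carrying a synthetic nanobody display library were exposed to 10% biotinylated, detergent-solubilized Sf9 membrane reagent at 4 °C for 1 hour. FACS followed streptavidin microbead enrichment, using low and high (top ~1%) gates for expression (anti-HA) and reagent binding (streptavidin). Colony PCR, MiSeq 2 × 250 sequencing and CDR-length filtering followed. Labels for polyreactivity reflect the gate of origin.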

Row | Sequence | polyreactivity (PSR sort gate)
1 | QVQLVESGGGLVQAGGSLRLSCAASGFTFFIYAMGWYRQAPGKERELVAAISWRGDRTYYADSVKGRFTISRDNAKNTVYLQMNSMKPEDTAVYYCAKSVWRRVYYARYDDRHNYWGQGTQVTVSS | high polyreactivity
2 | QVQLVESGGGLVQAGGSLRLSCAASGFTFFKYAMGWYRQAPGKERELVAAITRNGGRTYYADSVKGRFTISRDYAKNTVYLQMNSLKPEDTAVYYCNAASVNGGRDFDYWGQGTQVTVSS | high polyreactivity
3 | QVQLVESGGGLVQAGGSLRLSCAASGFTFFSNAMGWYRQAPGKERELVAAITSSGGSTYADSVKGRFTISRDNAKNTVYLQMNSLKPEDTAVYYCAAELYDYGDLYYSEYDYWGQGTQVTVSS | low polyreactivity
4 | QVQLVESGGGLVQAGGSLRLSCAASGFTFFTNAMGWYRKAPGKEREFVAAISGSGSRTYYADSVKGRFTISRDNAKNTVYLQMNSLIPEDTAVYYCAARVRGVYPFDYWGQGTQVTVSS | high polyreactivity
5 | QVQLVESGGGLVQAGGSLRLSCAASGFTFFTYAMGWYRQAPGKERELVAAITSGGSTNYADSVKGRFTISRDNAKNTVYLQMNSLKPEDTAVYYCATRAYSDATTFYGYQRSDSWGQGTQVTVSS | low polyreactivity
6 | QVQLVESGGGLVQAGGSLRLSCAASGFTFFVSAMGWYRQAPRKERELVAVITSGGTTNYADSVKGRFTISRDIAKKTVYLQMNSLKPEDTAVYYCNGRGEKRGYYYWGQGTQVSVSS | high polyreactivity
7 | QVQLVESGGGLVQAGGSLRLSCAASGFTFFYNAMGWYRQAPGKEREFVAAISGRGGTTYYADSVKGRFTISRDNAKNTVYLQMNSLKPEDTAVYYCNAGSSPIRQYYGQVWKKGGYWGQGTQVTVSS | high polyreactivity
8 | QVQLVESGGGLVQAGGSLRLSCAASGFTFGANVMGWYRQAPGKERELVAGITWSGDSTYYADSVKGRFTISRDNAKNTVYLQMNSLKPDDTAVYYCAADVYDGEYILDYDYWGQGTQVTVSS | low polyreactivity
9 | QVQLVESGGGLVQAGGSLRLSCAASGFTFGAYAMGWYRHAPGKERELVAAINRRGGSTYYADSVKGRFTISRENAKNTVYLQMKSLKPEDTAVYYCNAPFGYDYWGQGTQVTVSS | high polyreactivity
10 | QVQLVESGGGLVQAGGSLRLSCAASGFTFGAYAMGWYRQAPGKERELVAAITGSGGNTFYADSVKGRFTISRDNAKNSVYLEMNCLKTEDTAVYYCAKTWYPWSRYGYYRRYDSWGQGTQVTVSS | low polyreactivity
11 | QVQLVESGGGLVQAGGSLRLSCAASGFTFGDYAMGRYRPEPGKERELVAAISSGGNTNYADSVKGRFTISRDNAKHTVYLQMNRLKPEDTAVNNCAPRRQSKGYKLNYWGHGTQVTVSS | high polyreactivity
12 | QVQLVESGGGLVQAGGSLRLSCAASGFTFGFYAMGRYRQAPGKERELVARISYSGGSTYYADSVKGRFTISRDKAKNTVYLQMNSLKPEDTAVYYCNRGYRRLQEDYWGQGTQVTVSS | high polyreactivity
13 | QVQLVESGGGLVQAGGSLRLSCAASGFTFGFYAMGWYRQAPGKERELVAAISGSGGRTYYADSVKGRFTISRDNAKNTVYLQMNSLKPEDTAVYYCAARWQRKSNGDEDYWGQGTQVTVSS | high polyreactivity
14 | QVQLVESGGGLVQAGGSLRLSCAASGFTFGFYAMGWYRQAPGKERELVAAISKRGGSTYYADSVKGRFTISRDNAKNTVYLQMNSLKPEDTAVYYCAAVYTQSRGWEYDYWGQGTQVTVSS | high polyreactivity
15 | QVQLVESGGGLVQAGGSLRLSCAASGFTFGGNVMGWYRQAPGKERELVAAISSSGGSTYYADSVKGRFTISRDNAKNTVYLQMNSLKPEDTAVYYCAATTYGWWGYQYDYWGQGTQVTVSS | high polyreactivity
16 | QVQLVESGGGLVQAGGSLRLSCAASGFTFGGYAMGCYRQAPGKESELVAAISGRGGRTYYADSVKGRFTISRDNAKNTVYLQMNSLKPEDTAVYYCAAPTNHWTRLSGDYWGQGTQVTVSS | high polyreactivity
17 | QVQLVESGGGLVQAGGSLRLSCAASGFTFGGYAMGWYRQAPGKERELVARIRRSGGSTYYADSVKGRFTISRDNAKNTVYLQMNSLKPEDTAVYYCAAGYSRGQYRYNYWGQGTQVTVSS | high polyreactivity
18 | QVQLVESGGGLVQAGGSLRLSCAASGFTFGHYAMGWSRQAPGKERELVAAISKSGTRTYYADSVKGRFTISRDNAKNTVYLQMNSLKPEDTAVYYCATTAYNGYDHWGQGTQVTVSS | high polyreactivity
19 | QVQLVESGGGLVQAGGSLRLSCAASGFTFGLYAMGWYRQAPGKERELVAAITSGGRTYYADSVKGRFTISRDNAKNTVYFQMNSLNPEDSAVYYCNADFFNAYLWYPGYESGFDYWGQCTQVTVSS | low polyreactivity
20 | QVQLVESGGGLVQAGGSLRLSCAASGFTFGNNAMGWYRQAPGKERELVAGISRTGGRTYYADSVKGRYTISRDNAKNTVYFQMNSLKPEDTGVYYCNADSTLYTGYDYWGQGTQVTVSS | high polyreactivity
21 | QVQLVESGGGLVQAGGSLRLSCAASGFTFGNNGMGWYRQAPGKERELVATISWSGGSTYADSVKGRFTISRDNAKNTVDLQMNSLKPEDTAVYYCAARYFVYYLEVDYWGQGTQVTVSS | low polyreactivity
22 | QVQLVESGGGLVQAGGSLRLSCAASGFTFGNYAMGWYRQAQGKERELVDAISGSGGSTYYADSVKGRFTISRYNAKNTVYLQMNSLKPEDTAVYYCAARYWVTYWPDYYYWGQGTQVTVPS | high polyreactivity

Row | Sequence | polyreactivity (PSR sort gate)
23 | QVQLVESGGGLVQAGGSLRLSCAASGFTFGPYAMGWYRQAPGNEMELVAGITWSGASTYYADSVKGRFTISRDNAKNTVYLQMNSLNPEDSAVYYCARYYRLVSRYDYWGQGRQVTVSS | low polyreactivity
24 | QVQLVESGGGLVQAGGSLRLSCAASGFTFGPYVKGWYRQAPGKERELVAAISKSGGSTYYADSVKGRFTISRDYAKNTVYLQMNSLKPEDTAVYYCATDYLGGGKRYYYWGQGTQVTVSS | high polyreactivity
25 | QVQLVESGGGLVQAGGSLRLSCAASGFTFGQYAMGWYRQAPGKERELVAAIRWSGGSSYYADSVKGRFTISRDNAKNTVYLQMNSLKPEDTAVYYCAARRFDGYEYDYWGQGTQVTVSS | low polyreactivity
26 | QVQLVESGGGLVQAGGSLRLSCAASGFTFGQYAMGWYRQAPGKERELVAAITGSGGRTYYADSVKGRFTISRDNAKNTVYLQMNSLKPEDTAVYYCNARVPLRHYSNYYWGQGTQVTVSS | high polyreactivity
27 | QVQLVESGGGLVQAGGSLRLSCAASGFTFGRNAMGWYRQEPGKERELVATISKSGGSTYYADSVKGRFTISRDNAKNTVYVQMNSLKPEDTAVYYCADRSRRLPGDYWGQGTQVTVSS | low polyreactivity
28 | QVQLVESGGGLVQAGGSLRLSCAASGFTFGRTVRGWYRQAPGKERELVAAISSSGGSTYYADSVKGRFTISRDNAKNTVYLQMNSLKPEDTAVYYCAAVLVSWYRNPQYDYWGQGTQVTVSS | high polyreactivity
29 | QVQLVESGGGLVQAGGSLRLSCAASGFTFGRYALGWYRQAPGKERELVAAISFSGGRTYYADSVKGRFTISRDKAKNTVYLQMNSLKPEDTAVYYCAARRRQEHVGRSSYARYDYWGQGTQVTVSS | high polyreactivity
30 | QVQLVESGGGLVQAGGSLRLSCAASGFTFGRYAMGWYRQAPGKERELVAGISSGGRTNYADSVKGRFTISRDNAKNTVYLQMNSLKPEDTAVYYCNARWYRYPPRVRLYYWGQGTQVTVSS | high polyreactivity
31 | QVQLVESGGGLVQAGGSLRLSCAASGFTFGSNAMGWYRQAPGKERELVAAISYSGTRTYYADSVKGRFTISRDNAKNTVYLQMNRLKPEDTAVNYCAAGFRKTQFNVRYDYWGQGTQVTVSS | high polyreactivity
32 | QVQLVESGGGLVQAGGSLRLSCAASGFTFGSNAMGWYRQAPGKERELVAAITWDGGSTYYADSVKGRFTISRDNAKNTVYLQMNSLKPEDTAVYYCARYLYATYGKYNYWGQGTQVTVSS | high polyreactivity
33 | QVQLVESGGGLVQAGGSLRLSCAASGFTFGSNTMGWYRQAPGKERELVAAITTSGDSTYYADSVKGRFTISRDHAKNTVYLQMNSLKPEDTAVYYCAAERRYGRYYRLVRLLGQGTQVTVSS | high polyreactivity
34 | QVQLVESGGGLVQAGGSLRLSCAASGFTFGSNTMGWYRQAPGKERELVAAITYTGGRTYYADSVKGRFTISRDNAKNTVYLQMNSLKPEDTAVYYCAAEYHFWSYSPGYDYWGQGTQVTVSS | high polyreactivity
35 | QVQLVESGGGLVQAGGSLRLSCAASGFTFGSNVMGWYRQAPGKERELVAAIRGRGGSTYSADSVKGRFTISRDNAKNTVYLQMNSLKPEDTAVYYCNAVQRYQMGYCGQGTQVTVSS | high polyreactivity
36 | QVQLVESGGGLVQAGGSLRLSCAASGFTFGSYAMGWYRQAPGKEREFVAAIRRSGSSTYYADSVKGRFTISRDYAKNTVYLQMNSLKPEDTAVYYCAADVYRRLRRYRYYYWGQGTQVTVSS | low polyreactivity
37 | QVQLVESGGGLVQAGGSLRLSCAASGFTFGSYAMGWYRQAPGKERELVARISSDGSTNYAVSVNGRFTISRDNAKNTVYLQMNSLKPEDTAVYYCAADPVHRFPGTGGYWGQGTQVTVSS | low polyreactivity
38 | QVQLVESGGGLVQAGGSLRLSCAASGFTFGSYAMGWYRQAPGKERELVAVITRSGRTNYADSVKGRFTISRDNAKNTVYLLMNSLKPEDTAVYYCNADDVDDEVSPDLTEMDYWGQGTQVTVSS | low polyreactivity
39 | QVQLVESGGGLVQAGGSLRLSCAASGFTFGSYAMGWYRQAPGKERELVAVITRSGRTNYADSVKGRFTISRDNAKNTVYLQMNSLKPEDTAVYYCNADDVDDEVSPDLTEMDYWGQGTQVTVSS | low polyreactivity
40 | QVQLVESGGGLVQAGGSLRLSCAASGFTFGSYAMGWYRQAPGTERELVAAISCSGGSTYYADSVKGRFTISRDNAKNTVYLQMNSLKPEDTAVYYCAVRYPLYRMDYWGQGTQVTVSS | high polyreactivity
41 | QVQLVESGGGLVQAGGSLRLSCAASGFTFGTNAMGWYRQAPGKEMELVAAITWSGGRTYYADSVKGRFTISRDNAKNTVYLQMNSRKQEDTAVYYCAKQYYRNKYEYWGQGTQVTVSS | high polyreactivity
42 | QVQLVESGGGLVQAGGSLRLSCAASGFTFGTYAMGWYRPAPGKERELVAAITRRGDNTYYADSVKGRFTISRDNAKNTVYLQMNSLNPEDTAVYYCIAAKGGRYPDYDYWGQGTQVTVSS | high polyreactivity
43 | QVQLVESGGGLVQAGGSLRLSCAASGFTFGTYAMGWYRQAPGKERELVASIRTDDSTYADSVKGRFTISRDNAKNTVYLQMNSLKPEDTAVYYCAVDGYVIYVYDTYDYWGQGTQVTVSS | low polyreactivity
